The text below walks through data of US20210253718A1 (MODMAB THERAPEUTICS, published 2021).

For test [1], the target named is FZD1 cysteine-rich domain (CRD), MYC-tagged and GPI-anchored on CHO cells (human). Description: flow cytometry, CHO-CRD cells.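 Further: flow cytometry of Fab binding to CHO cells overexpressing a Frizzled CRD, with binding defined as median fluorescence over twice that of CHO cells lacking any Frizzled CRD.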
Description: (§1) Binding was measured via flow cytometry analysis of CHO cells overexpressing CRD of FZD1, FZD2, FZD3, FZD4, FZD5, FZD6, FZD7, FZD8, FZD9 or FZD10. Median fluorescence values are shown.
Test [2] addresses T1, FZD3 cysteine-rich domain (CRD), MYC-tagged and GPI-anchored on CHO cells (human, UniProt Q9NPG1 24-150, GPI anchor).
T1 construct: domain: cysteine-rich domain (CRD); also called FZD3 CRD; CHO-myc-FZDGPI; not shown: MYC tag and GPI anchor signal
T1 sequence (looked up): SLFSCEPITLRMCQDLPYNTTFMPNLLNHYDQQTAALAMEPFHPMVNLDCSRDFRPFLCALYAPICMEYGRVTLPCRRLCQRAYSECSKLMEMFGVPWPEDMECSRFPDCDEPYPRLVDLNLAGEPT
Description: flow cytometry, CHO-CRD cells.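 Further: flow cytometry of Fab binding to CHO cells overexpressing a Frizzled CRD, with binding defined as median fluorescence over twice that of CHO cells lacking any Frizzled CRD.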 On the technique in general: Flow cytometry measures light scatter and fluorescence of single cells or particles in a stream.

Test [3] deals with T2, FZD5 cysteine-rich domain (CRD), MYC-tagged and GPI-anchored on CHO cells (human, UniProt Q13467 29-156, GPI anchor).
T2 construct: also called FZD5 CRD; CHO-myc-FZDGPI; not shown: MYC tag and GPI anchor signal
T2 sequence: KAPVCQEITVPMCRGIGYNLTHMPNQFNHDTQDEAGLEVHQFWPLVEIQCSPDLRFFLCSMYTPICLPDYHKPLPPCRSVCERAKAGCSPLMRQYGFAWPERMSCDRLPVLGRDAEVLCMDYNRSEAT
Description: flow cytometry, CHO-CRD cells.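 Further: flow cytometry of Fab binding to CHO cells overexpressing a Frizzled CRD, with binding defined as median fluorescence over twice that of CHO cells lacking any Frizzled CRD.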

For test [4], the target named is T3, FZD6 cysteine-rich domain (CRD), MYC-tagged and GPI-anchored on CHO cells (human, UniProt O60353 20-146, GPI anchor).
T3 construct: also called FZD6 CRD; CHO-myc-FZDGPI; not shown: MYC tag and GPI anchor signal
T3 sequence: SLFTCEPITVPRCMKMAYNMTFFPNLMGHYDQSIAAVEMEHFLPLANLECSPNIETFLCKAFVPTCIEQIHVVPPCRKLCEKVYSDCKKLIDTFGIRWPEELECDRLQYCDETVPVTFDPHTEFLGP
The test can be described thus: flow cytometry, CHO-CRD cells.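 Further: flow cytometry of Fab binding to CHO cells overexpressing a Frizzled CRD, with binding defined as median fluorescence over twice that of CHO cells lacking any Frizzled CRD.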

Test [5] addresses FZD7 cysteine-rich domain (CRD), MYC-tagged and GPI-anchored on CHO cells (human, UniProt O75084 45-169). Description: flow cytometry, CHO-CRD cells.
Description: as §1
For test [6], the target named is T4, FZD8 cysteine-rich domain (CRD), MYC-tagged and GPI-anchored on CHO cells (human, UniProt Q498S8 31-155 (rat entry), GPI anchor).
T4 construct: also called FZD8 CRD; CHO-myc-FZDGPI; not shown: MYC tag and GPI anchor signal
T4 sequence: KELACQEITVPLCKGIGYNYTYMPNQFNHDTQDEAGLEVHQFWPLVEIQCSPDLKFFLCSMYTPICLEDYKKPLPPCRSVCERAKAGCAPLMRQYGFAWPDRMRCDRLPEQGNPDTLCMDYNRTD
Description: flow cytometry, CHO-CRD cells.

Test [7] has as its target T5, FZD9 cysteine-rich domain (CRD), MYC-tagged and GPI-anchored on CHO cells (human, UniProt O00144 35-161, GPI anchor).
T5 construct: also called FZD9 CRD; CHO-myc-FZDGPI; not shown: MYC tag and GPI anchor signal
T5 sequence: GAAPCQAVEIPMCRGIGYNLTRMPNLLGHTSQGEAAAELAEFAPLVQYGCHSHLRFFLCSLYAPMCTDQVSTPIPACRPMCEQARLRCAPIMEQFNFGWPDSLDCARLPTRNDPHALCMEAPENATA
Description: flow cytometry, CHO-CRD cells.

Test [8] addresses T6, FZD10 cysteine-rich domain (CRD), MYC-tagged and GPI-anchored on CHO cells (human, UniProt Q9ULW2 30-156, GPI anchor).
T6 construct: also called FZD10 CRD; CHO-myc-FZDGPI; not shown: MYC tag and GPI anchor signal
T6 sequence: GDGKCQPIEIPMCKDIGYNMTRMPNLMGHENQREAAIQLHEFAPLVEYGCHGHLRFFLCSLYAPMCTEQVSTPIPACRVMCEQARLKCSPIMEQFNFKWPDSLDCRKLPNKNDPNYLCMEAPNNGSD
Description: flow cytometry, CHO-CRD cells.

Test [9] concerns the target T1, FZD3 cysteine-rich domain (CRD), …. Description: immunofluorescence, CHO-CRD cells.
In test [10] the target is T3, FZD6 cysteine-rich domain (CRD), …. Description: immunofluorescence, CHO-CRD cells.
Test [11] has as its target T5, FZD9 cysteine-rich domain (CRD), …. The test can be described thus: immunofluorescence, CHO-CRD cells.
The target of test [12] is T6, FZD10 cysteine-rich domain (CRD), …. The test can be described thus: immunofluorescence, CHO-CRD cells.
Test [13] concerns the target FZD2 cysteine-rich domain (CRD), MYC-tagged and GPI-anchored on CHO cells (human, UniProt Q14332 35-161). The test can be described thus: flow cytometry, CHO-CRD cells.
Description: as §1
Test [14] deals with T7, FZD4 cysteine-rich domain (CRD), MYC-tagged and GPI-anchored on CHO cells (human, UniProt Q9ULV1 42-167, GPI anchor).
T7 construct: also called FZD4 CRD; CHO-myc-FZDGPI; not shown: MYC tag and GPI anchor signal
T7 sequence: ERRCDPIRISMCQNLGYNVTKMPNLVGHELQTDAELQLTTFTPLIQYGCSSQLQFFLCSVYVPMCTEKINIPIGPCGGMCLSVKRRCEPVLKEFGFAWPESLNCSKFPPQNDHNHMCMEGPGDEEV
Description: flow cytometry, CHO-CRD cells.

Test [15] addresses T7, FZD4 cysteine-rich domain (CRD), …. The test can be described thus: immunofluorescence, CHO-CRD cells.

B1: Fab-2930 (Fab, V domains shown)
VH: EVQLVESGGGLVQPGGSLRLSCAASGFNLSYYYIHWVRQAPGKGLEWVASIYPYSGSTSYADSVKGRFTISADTSKNTAYLQMNSLRAEDTAVYYCARGALDYWGQGTLVTVSS
VL: DIQMTQSPSSLSASVGDRVTITCRASQSVSSAVAWYQQKPGKAPKLLIYSASSLYSGVPSRFSGSRSGTDFTLTISSLQPEDFATYYCQQWYGPYLITFGQGTKVEIK
notes: Fab; also called Fv-2930
B1: the median fluorescence in test [1] came out at 30.1; in test [2] it was 6.26; in test [3] it was 33.1; in test [4], 3.79; in test [5], 22.2; in [6], 13.8. The median fluorescence in [7] is 4.87; in test [8], 4.37. In addition, the binding result in test [9], in test [10], in test [11] and in test [12] was “no binding” throughout.

B2: Fab-2912 (Fab, V domains shown)
VH: EVQLVESGGGLVQPGGSLRLSCAASGFNISYSYIHWVRQAPGKGLEWVASISSSSGYTSYADSVKGRFTISADTSKNTAYLQMNSLRAEDTAVYYCARTVRGSKKPYFSGWAMDYWGQGTLVTVSS
VL: DIQMTQSPSSLSASVGDRVTITCRASQSVSSAVAWYQQKPGKAPKLLIYSASSLYSGVPSRFSGSRSGTDFTLTISSLQPEDFATYYCQQFYFPYLITFGQGTKVEIK
notes: Fab; also called Fv-2912
As for B2, the median fluorescence in [1] was determined as 41; in test [13], 19.8; in [2], 4.61; in [14], 47; in [3], 32.2; in test [4] it was 4.1. Besides, the median fluorescence in test [5] turned out to be 56.7; in test [6], 7.57; in [7], 4.45; in test [8] it was 3.82. For the same molecule, the binding result in [9], in [10], in test [11] and in [12] was “no binding” in each case.

B3: Fab-2899 (Fab, V domains shown)
VH: EVQLVESGGGLVQPGGSLRLSCAASGFNLYYYYMHWVRQAPGKGLEWVASIYPSSGSTSYADSVKGRFTISADTSKNTAYLQMNSLRAEDTAVYYCARGALDYWGQGTLVTVSS
VL: DIQMTQSPSSLSASVGDRVTITCRASQSVSSAVAWYQQKPGKAPKLLIYSASSLYSGVPSRFSGSRSGTDFTLTISSLQPEDFATYYCQQWYSSYGLITFGQGTKVEIK
notes: Fab; also called Fv-2899
On to B3, for which the median fluorescence in test [1] is 19.5; in [13], 20.7; in [2], 7.91; in test [3], 33.7; in test [4], 4.37; in [5], 54.2. Besides, the median fluorescence in test [6] came out at 12.8; in [7] it was 4.7; in test [8], 5. In addition, the binding result in test [9], in test [10], in test [11] and in test [12] was “no binding” in each case.

B4: Fab-2907 (Fab, V domains shown)
VH: EVQLVESGGGLVQPGGSLRLSCAASGFNIYSSYMHWVRQAPGKGLEWVASISSYSGSTYYADSVKGRFTISADTSKNTAYLQMNSLRAEDTAVYYCARSSWGAYIVSYGFDYWGQGTLVTVSS
VL: DIQMTQSPSSLSASVGDRVTITCRASQSVSSAVAWYQQKPGKAPKLLIYSASSLYSGVPSRFSGSRSGTDFTLTISSLQPEDFATYYCQQVGYWWGLITFGQGTKVEIK
notes: Fab; also called Fv-2907
Consider B4, for which the median fluorescence in test [2] was found to be 3.79; in test [14] it was 3.96; in test [4], 3.06; in test [7] it was 2.86; in [8], 2.76. The binding result in [9], in [15], in [10], in [11] and in [12] was “no binding” throughout.

B5: Fab-2904 (Fab, V domains shown)
VH: EVQLVESGGGLVQPGGSLRLSCAASGFNIYSYSMHWVRQAPGKGLEWVAYISSSYGYTSYADSVKGRFTISADTSKNTAYLQMNSLRAEDTAVYYCARSWYAWAMDYWGQGTLVTVSS
VL: DIQMTQSPSSLSASVGDRVTITCRASQSVSSAVAWYQQKPGKAPKLLIYSASSLYSGVPSRFSGSRSGTDFTLTISSLQPEDFATYYCQQSSYSLITFGQGTKVEIK
notes: Fab; also called Fv-2904
As to B5, the median fluorescence in test [1] is 15.5; in test [13] it was 12; in test [2], 4.14; in test [3] it was 29.7; in [4] it was 3.59; in test [5], 42.9. For the same molecule, the median fluorescence in test [6] is 10.1; in test [7], 3.37; in test [8], 3.43. Also, the binding result in test [9], in [10], in [11] and in test [12] was “no binding” in each case.

B6: Fab-2933 (Fab, V domains shown)
VH: EVQLVESGGGLVQPGGSLRLSCAASGFNLYSSYMHWVRQAPGKGLEWVASIYSSYGYTSYADSVKGRFTISADTSKNTAYLQMNSLRAEDTAVYYCARTVRGSKKPYFSGWAMDYWGQGTLVTVSS
VL: DIQMTQSPSSLSASVGDRVTITCRASQSVSSAVAWYQQKPGKAPKLLIYSASSLYSGVPSRFSGSRSGTDFTLTISSLQPEDFATYYCQQFWWYASWLFTFGQGTKVEIK
notes: Fab; also called Fv-2933
Consider B6, for which the median fluorescence in [1] stood at 14.5; in test [2], 4.1; in test [14] it was 46.4; in test [3], 34.9; in test [4], 4.1; in test [5], 8.74. Besides, the median fluorescence in test [6] stood at 26.7; in test [7], 143; in test [8], 21.1. Also, the binding result in [9] and in [10] was “no binding” throughout.
